Test results taken from PMC3848981 (PLoS Biology, 2013).
Residue numbers refer to the chain shown, from its start. In names and notes the source's numbering stands.

Tests used:
TRAF4 = molecular target: T1, TRAF4 (Homo sapiens, UniProt Q9BUZ4); assay: isothermal titration calorimetry; type: binding
T1 construct: TRAF domain (TRAF-6His), homotrimer
T1 sequence (Q9BUZ4 283-470): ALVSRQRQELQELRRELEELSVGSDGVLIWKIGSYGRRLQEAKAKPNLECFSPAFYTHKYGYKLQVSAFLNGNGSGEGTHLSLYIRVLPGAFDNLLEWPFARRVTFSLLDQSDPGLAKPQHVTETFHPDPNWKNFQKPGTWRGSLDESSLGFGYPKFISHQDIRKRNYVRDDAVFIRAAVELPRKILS

[1] = molecular target: the molecule itself; assay: native MS; ESI-TOF in native condition, TRAF-6His alone (no lipid), 20 pmol/µL protein in ammonium bicarbonate buffer (100 mM NH4HCO3 pH 8)
[2] = molecular target: the molecule itself; assay: SEC + other: dynamic light scattering; gel filtration of 1 ml containing 1 mg WT or 0.3 mg K345E TRAF domain; DLS with 20 µM protein at 25°C in 10 mM Tris pH 7.5, 150 mM NaCl

O=P(O)(O)O[C@H]1[C@H](O)[C@@H](OP(=O)(O)O)[C@H](OP(=O)(O)O)[C@@H](OP(=O)(O)O)[C@H]1O [IP4, inositol-(1,3,4,5)-tetrakisphosphate]
Kd (TRAF4): 5.68 µM

B1: TRAF domain of human TRAF4 fused to a 6His tag (TRAF-6His) (domain or fragment, UniProt Q9BUZ4 283-470, looked up)
chain: T1 sequence (Q9BUZ4 283-470)
notes: Tumor necrosis factor receptor-associated factor 4 (TRAF4), human, TRAF domain; the crystal structure includes residues 283-470 of the TRAF domain; Printed monomer mass 22.6 kDa; also called TRAF4-TRAF domain; WT TRAF domain
stoichiometry N [1]: 3

B2: K345E mutant TRAF domain of TRAF4 (domain or fragment, human, UniProt Q9BUZ4 283-470, looked up)
chain: T1 sequence (Q9BUZ4 283-470) with K63E
notes: Tumor necrosis factor receptor-associated factor 4 (TRAF4), human, TRAF domain with K345E; same limits as the wild-type TRAF domain, whose structure includes residues 283-470; also called TRAF-K345E; TRAF-6HIS K345E; source: E. coli, purified
stoichiometry N [2]: 3
